Several values for one entry are separate records, joined by “and”; a condition that tells them apart may be missing. Equal entries are not always repeated.
Test: Serum PK of Enhertu: total antibody, total ADC, free payload (HPLC-MS/MS), IV vs SC vs SC + rHuPH20
Conditions: for TADC/TAB Ratio: listed as ADC
Description: Serum concentrations of total ADC, total antibody and Free Payload (unconjugated deruxtecan) were determined in three separate assays using HPLC with MS/MS detection.
A 20.0-μL sample aliquot was diluted 10-fold. A portion of the diluted sample was taken and processed using an immunoaffinity approach. […] The bound proteins were subjected to “on-bead” proteolysis with trypsin. After trypsin digestion, the samples were split into two portions. One portion used the characteristic peptide fragments produced from the trypsin digestion to quantitate total antibody. The second portion was further digested using papain to hydrolyze Dxd from the antibody to quantitate total ADC.
VVSV was used for the quantitation of total antibody concentrations, DSTY was used for the quantitation of intact antibody (troubleshooting purposes only), and Dxd was used for quantitating Total ADC concentrations.
A nominal free Dxd, concentration range of […] was chosen to quantitate samples. This assay requires a 50.0 μL porcine serum and skin aliquot. Samples were kept frozen at −80° C. prior to analysis.
A matrix aliquot is fortified with internal standard. Analytes are isolated through acidified protein precipitation. The eluate is evaporated under a nitrogen stream, and the remaining residue is reconstituted. Final extracts are analyzed via HPLC MS/MS detection using positive ion electrospray.

Substance: Sacituzumab govitecan [Trodelvy]
- Relative difference in serum AUC0-7, Free Payload, vs. ADC-IV (SC vs. ADC-IV): 83%
- Relative difference in serum AUC0-7, TAB, vs. ADC-IV (SC vs. ADC-IV): 59%
- Relative difference in serum AUC0-7, TADC, vs. ADC-IV (SC vs. ADC-IV): 60%
- Relative difference in serum Cmax, Free Payload, vs. ADC-IV (SC vs. ADC-IV): 70%
- Relative difference in serum Cmax, TAB, vs. ADC-IV (SC vs. ADC-IV): 28%
- Relative difference in serum Cmax, TADC, vs. ADC-IV (SC vs. ADC-IV): 29%
- TADC/TAB ratio - serum, mean (SC, 6 h): 1.054
- TADC/TAB ratio - serum, mean (SC, 24 h): 1.195
- TADC/TAB ratio - serum, mean (SC, 48 h): 0.796
- TADC/TAB ratio - serum, mean (SC, 72 h): 0.806
- TADC/TAB ratio - serum, mean (SC, 96 h): 0.765
- TADC/TAB ratio - serum, mean (SC, 168 h): 1.028
- SC/IV, mean AUC0-7, ADC (minipig serum): 60%
- SC/IV, mean AUC0-7, Ab (minipig serum): 59%
- SC/IV, mean AUC0-7, Payload (minipig serum): 83%
- SC/IV, mean Cmax, ADC (minipig serum): 29%
- SC/IV, mean Cmax, Ab (minipig serum): 28%
- SC/IV, mean Cmax, Payload (minipig serum): 70%
- ADC/Ab ratio, mean AUC0-7 (minipig serum, IV): 86%
- ADC/Ab ratio, mean Cmax (minipig serum, IV): 93%
- ADC/Payload ratio, mean AUC0-7 (minipig serum, IV): 116066%
- ADC/Payload ratio, mean Cmax (minipig serum, IV): 201037%
- ADC/Ab ratio, mean AUC0-7 (minipig serum, SC): 87%
- ADC/Ab ratio, mean Cmax (minipig serum, SC): 96%
- ADC/Ab ratio, mean Tmax (minipig serum, SC): 60%
- ADC/Payload ratio, mean AUC0-7 (minipig serum, SC): 83512%
- ADC/Payload ratio, mean Cmax (minipig serum, SC): 83474%
- ADC/Payload ratio, mean Tmax (minipig serum, SC): 57%
- AUC0-7, free payload in serum (pig, in vivo, iv): 0.04 µg·days/mL
- AUC0-7, total ADC in serum (pig, in vivo, iv): 47.73 µg·days/mL
- AUC0-7, total antibody in serum (pig, in vivo, iv): 55.38 µg·days/mL
- AUC0-7 free payload (pig, in vivo, iv): 0.04 µg·days/mL
- AUC0-7 total ADC (TADC) (pig, in vivo, iv): 47.73 µg·days/mL
- AUC0-7 total antibody (TAB) (pig, in vivo, iv): 55.38 µg·days/mL
- Cmax free payload (pig, in vivo, iv): 10 ng/mL
- Cmax total ADC (TADC) (pig, in vivo, iv): 25120 ng/mL
- Cmax total antibody (TAB) (pig, in vivo, iv): 27000 ng/mL
- Cmax, free payload in serum (pig, in vivo, iv): 10 ng/mL
- Cmax, total ADC in serum (pig, in vivo, iv): 25120 ng/mL
- Cmax, total antibody in serum (pig, in vivo, iv): 27000 ng/mL
- Tmax free payload (pig, in vivo, iv): 0 h
- Tmax total ADC (TADC) (pig, in vivo, iv): 0 h
- Tmax total antibody (TAB) (pig, in vivo, iv): 0 h
- Tmax, free payload in serum (pig, in vivo, iv): 0 h
- Tmax, total ADC in serum (pig, in vivo, iv): 0 h
- Tmax, total antibody in serum (pig, in vivo, iv): 0 h
- Total ADC concentration in the serum of minipigs (pig, in vivo, iv, 0 h): 25.12 µg/mL
- Total ADC Result (pig, in vivo, iv, 5 mL): <0.100 µg/mL
- Total ADC concentration in the serum of minipigs (pig, in vivo, iv, 5 mL, 6 h): 21.40 µg/mL
- Total ADC concentration in the serum of minipigs (pig, in vivo, iv, 5 mL, 24 h): 12.80 µg/mL
- Total ADC Result (pig, in vivo, iv, 6 h): 21.4 µg/mL
- Total ADC Result (pig, in vivo, iv, 24 h): 12.8 µg/mL
- Total ADC Result (pig, in vivo, iv, 48 h): 7.28 µg/mL
- Total ADC concentration in the serum of minipigs (pig, in vivo, iv, 48 h): 7.28 µg/mL
- Total ADC Result (pig, in vivo, iv, 72 h): 5.04 µg/mL
- Total ADC concentration in the serum of minipigs (pig, in vivo, iv, 72 h): 5.04 µg/mL
- Total ADC Result (pig, in vivo, iv, 96 h): 3.91 µg/mL
- Total ADC concentration in the serum of minipigs (pig, in vivo, iv, 96 h): 3.91 µg/mL
- Total ADC Result (pig, in vivo, iv, 168 h): 1.70 µg/mL
- Total ADC concentration in the serum of minipigs (pig, in vivo, iv, 168 h): 1.70 µg/mL
- Tmax total ADC (TADC) (pig, in vivo, sc): 24 h
- Tmax, total ADC in serum (pig, in vivo, sc): 24 h
- Total ADC Result (pig, in vivo, sc, 0 h): <0.100 µg/mL
- Total ADC concentration in the serum of minipigs (pig, in vivo, sc, 5 mL, 6 h): 4.08 µg/mL
- Total ADC concentration in the serum of minipigs (pig, in vivo, sc, 5 mL, 24 h): 7.27 µg/mL
- Total ADC concentration in the serum of minipigs (pig, in vivo, sc, 48 h): 5.17 µg/mL
- Total ADC concentration in the serum of minipigs (pig, in vivo, sc, 72 h): 4.35 µg/mL
- Total ADC concentration in the serum of minipigs (pig, in vivo, sc, 96 h): 3.74 µg/mL
- Total ADC concentration in the serum of minipigs (pig, in vivo, sc, 168 h): 2.04 µg/mL
- TADC/Free Payload, AUC0-7 (serum, IV): 116066%
- TADC/Free Payload, Cmax (serum, IV): 201037%
- TADC/TAB, AUC0-7 (serum, IV): 86%
- TADC/TAB, Cmax (serum, IV): 93%
- TADC/TAB Ratio (serum, IV, 6 h, individual animal): 0.92 and 0.918
- TADC/TAB Ratio (serum, IV, 24 h, individual animal): 0.87 and 0.871
- TADC/TAB Ratio (serum, IV, 48 h, individual animal): 0.80 and 0.804
- TADC/TAB Ratio (serum, IV, 72 h, individual animal): 0.88 and 0.877
- TADC/TAB Ratio (serum, IV, 96 h, individual animal): 0.77 and 0.773
- TADC/TAB Ratio (serum, IV, 168 h, individual animal): 0.99 and 0.994
- TADC/Free Payload, AUC0-7 (serum, SC): 83512%
- TADC/Free Payload, Cmax (serum, SC): 83474%
- TADC/Free Payload, Tmax (serum, SC): 57%
- TADC/TAB, AUC0-7 (serum, SC): 87%
- TADC/TAB, Cmax (serum, SC): 96%
- TADC/TAB, Tmax (serum, SC): 60%
- TADC/TAB Ratio (serum, SC, 6 h, individual animals): 1.01 and 1.13 and 1.03 and 1.006 and 1.129 and 1.026
- TADC/TAB Ratio (serum, SC, 24 h, individual animals): 1.55 and 0.84 and 1.19 and 1.546 and 0.845 and 1.194
- TADC/TAB Ratio (serum, SC, 48 h, individual animals): 0.81 and 0.82 and 0.76 and 0.808 and 0.823 and 0.756
- TADC/TAB Ratio (serum, SC, 72 h, individual animals): 0.76 and 0.72 and 0.93 and 0.763 and 0.721 and 0.934
- TADC/TAB Ratio (serum, SC, 96 h, individual animals): 0.74 and 0.73 and 0.82 and 0.744 and 0.731 and 0.819
- TADC/TAB Ratio (serum, SC, 168 h, individual animals): 1.20 and 0.89 and 0.99 and 1.204 and 0.891 and 0.989

Reference: patent US20260069707A1, “COMBINATION THERAPY WITH ANTIBODY-DRUG CONJUGATES AND HYALURONIDASES” (HALOZYME, INC., priority 2024, published 2026)
